Assay results from paper PMC2683942, “Unc5B Interacts with FLRT3 and Rnd1 to Modulate Cell Adhesion in Xenopus Embryos” (PLoS ONE, 2009).

B1: soluble alkaline phosphatase-FLRT3 ectodomain fusion protein (AP-FLRT3ΔTM) (domain or fragment, Xenopus, UniProt Q70AK3 29-527, looked up)
chain: KPCPSVCRCDAGFIYCNDRDLTSIPSGIPDDATTLYLQNNQINNAGIPSDLKGLDKVERIYLYRNSLDEFPINLPKNVKELHLQENNIRTITYDALLQIPFIEELHLDDNSVSAVSIEDGAFRDNIFLRLLFLSRNHLSTIPWGLPKTIEELRLDDNRISTISEISLQDLTNLKRLVLDGNLLNNNGLGERVFMNLINLTELSLVRNSLTSPPANLPGTSLRKLYLQENHMNYVPPNSFADLTQLYRLDMSNNNLTALPQGIFDDLDNLTQLFLRNNPWYCGCKMKWVRDWLQSLPSKVNVRGLMCQAPERVRGMTIKDLNKELFDCKDRIGSNTIHVTTTMLNSLLPAQGQWPVPVTKQPEIRPPDINKIFRTTPIPVKKIITIQVKSITTETIYISWKVALPMTALRLSWQLGHSPVFGSITETIVTGDRAEYLLTALEPESPYRICMVPMETGNIYLSDETPVCIETETAPLKMYNPTTTLNREQEKEPYKNSSLP
notes: FLRT3, Xenopus, ectodomain (ΔTM); also called AP-tagged FLRT3ΔTM; source: conditioned medium, concentrated

Columns and labels:
[1] = molecular target: B1; test: equilibrium binding of an alkaline phosphatase fusion protein to transfected cells, binding curves and Scatchard analysis; different amounts of concentrated AP-FLRT3ΔTM conditioned medium on transfected cells, 1 h at RT; washed with PBS containing 0.2 M NaCl; cells lysed; AP activity read at 405 nm, normalised to cell number; conditions: partners not purified
[2] = molecular target: T1, Xenopus Unc5B (Xenopus, UniProt Q8JGT4 31-943); test: as above; conditions: partners not purified
T1 construct: Netrin receptor Unc5B, Xenopus; Constructs are in Text S1; source: HEK293T, transfected, on cells
T1 sequence (Q8JGT4 31-943): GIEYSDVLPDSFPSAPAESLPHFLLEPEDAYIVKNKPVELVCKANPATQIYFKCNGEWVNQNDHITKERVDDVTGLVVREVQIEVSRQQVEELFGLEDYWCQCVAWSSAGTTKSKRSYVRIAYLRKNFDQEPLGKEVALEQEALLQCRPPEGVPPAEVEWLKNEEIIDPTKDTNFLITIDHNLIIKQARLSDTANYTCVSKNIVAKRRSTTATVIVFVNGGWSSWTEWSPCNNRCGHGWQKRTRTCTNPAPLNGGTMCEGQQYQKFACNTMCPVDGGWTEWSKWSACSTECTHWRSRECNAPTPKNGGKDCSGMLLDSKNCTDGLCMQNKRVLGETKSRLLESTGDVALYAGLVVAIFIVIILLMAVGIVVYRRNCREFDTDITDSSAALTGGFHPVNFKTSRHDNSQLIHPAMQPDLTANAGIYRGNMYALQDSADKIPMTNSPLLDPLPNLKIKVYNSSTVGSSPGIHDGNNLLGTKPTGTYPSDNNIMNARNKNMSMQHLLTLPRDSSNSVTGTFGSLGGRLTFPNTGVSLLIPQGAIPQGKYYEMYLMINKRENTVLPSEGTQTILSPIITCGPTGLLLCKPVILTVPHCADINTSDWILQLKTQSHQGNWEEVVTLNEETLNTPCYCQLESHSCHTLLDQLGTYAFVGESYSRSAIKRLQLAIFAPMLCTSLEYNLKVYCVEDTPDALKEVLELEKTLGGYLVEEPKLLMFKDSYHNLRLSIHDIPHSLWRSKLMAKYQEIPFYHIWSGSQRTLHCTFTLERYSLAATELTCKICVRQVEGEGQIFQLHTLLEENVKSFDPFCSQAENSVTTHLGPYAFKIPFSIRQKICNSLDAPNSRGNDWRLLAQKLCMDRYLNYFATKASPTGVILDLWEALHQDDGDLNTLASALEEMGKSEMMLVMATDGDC

Kd [1] | Kd [2] | Binder
26 nM | – | Unc5D (splice variant of the mouse Unc5D gene) (receptor) ARGADGSEILPDSIPSAPGTLPHFIEEPEDAYIIKSNPIALRCKARPAMQIFFKCNGEWVHQNEHVSEESLDESSGLKVREVFINVTRQQVEDFHGPEDYWCQCVAWSHLGTSKSRKASVRIAYLRKNFEQDPQGREVPIEGMIVLHCRPPEGVPAAEVEWLKNEEPIDSEQDENIDTRADHNLIIRQARLSDSGNYTCMAANIVAKRRSLSATVVVYVNGGWSSWTEWSACNVRCGRGWQKRSRTCTNPAPLNGGAFCEGMSVQKITCTALCPVDGSWEVWSEWSVCSPECEHLRIRECTAPPPRNGGKFCEGLSQESENCTDGLCILDKKPLHEIKPQSIENASDIALYSGLGAAVVAVAVLVIGVTLYRRSHSDYGVDVIDSSALTGNSLLLNPAMQPDLTVSRTYSGPICLQDPLDKELMTESSLFNPLSDIKVKVQSSFMVSLGVSERAEYHGKNHSGTFPHGNNRGFSTIHPRNKTPYIQNLSSLPTRTELRTTGVFGHLGGRLVMPNTGVSLLIPHGAIPEENSWEIYMSINQGEPSLQSDGSEVLLSPEVTCGPPDMLVTTPFALTIPHCADVSSEHWNIHLKKRTQQGKWEEVMSVEDESTSCYCLLDPFACHVLLDSFGTYALTGEPITDCAVKQLKVAVFGCMSCNSLDYNLRVYCVDNTPCAFQEVISDERHQGGQLLEEPKLLHFKGNTFSLQVSVLDIPPFLWRIKPFTACQEVPFSRVWSSNRQPLHCAFSLERYTPTTTQLSCKICIRQLKGHEQILQVQTSILESERETITFFAQEDSTFPAQTGPKAFKIPYSIRQRICATFDTPNAKGKDWQMLAQKNSINRNLSYFATQSSPSAVILNLWEARHQQDGDLDSLACALEEIGRTHTKLSNITEPQIDDADFNYSRQNGL
– | 50 nM | B1
